# Assay results reported in publication PMC9482650, “Quantitative fragmentomics allow affinity mapping of interactomes” (Nature Communications, 2022).
# T1: PDZD7_3, Q9H5P4
# T1 sequence (Q9H5P4 857-944, limits assumed, looked up): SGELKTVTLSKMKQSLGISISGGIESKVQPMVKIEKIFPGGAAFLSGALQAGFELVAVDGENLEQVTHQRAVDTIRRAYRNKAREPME
# T2: TJP3_3, O95049
# T2 sequence (O95049 375-456, limits assumed, looked up): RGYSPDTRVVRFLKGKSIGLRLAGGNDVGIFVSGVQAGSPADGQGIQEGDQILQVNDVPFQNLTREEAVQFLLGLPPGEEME
# T3: LIN7C, Q9NUP9
# T3 sequence (Q9NUP9 88-185, limits assumed, looked up): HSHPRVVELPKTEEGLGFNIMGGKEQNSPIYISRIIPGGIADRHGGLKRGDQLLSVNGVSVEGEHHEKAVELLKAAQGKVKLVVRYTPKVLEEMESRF
# T4: RHPN1, Q8TCX5
# T4 sequence (Q8TCX5 508-602, limits assumed, looked up): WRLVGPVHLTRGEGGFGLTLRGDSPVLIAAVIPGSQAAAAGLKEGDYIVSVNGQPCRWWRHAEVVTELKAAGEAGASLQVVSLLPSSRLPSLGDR
# T5: SNTG2, Q9NY99
# T5 sequence (Q9NY99 68-166, limits assumed, looked up): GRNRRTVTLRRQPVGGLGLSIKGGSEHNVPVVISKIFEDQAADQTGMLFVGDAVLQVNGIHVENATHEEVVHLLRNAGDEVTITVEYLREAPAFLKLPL
# T6: HTRA3, P83110
# T6 sequence (P83110 354-453, limits assumed, looked up): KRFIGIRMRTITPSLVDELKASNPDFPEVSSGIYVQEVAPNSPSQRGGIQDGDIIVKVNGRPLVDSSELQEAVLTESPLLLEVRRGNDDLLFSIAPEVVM
# T7: FRMPD1, Q5SYB0
# T7 sequence (Q5SYB0 52-145, limits assumed, looked up): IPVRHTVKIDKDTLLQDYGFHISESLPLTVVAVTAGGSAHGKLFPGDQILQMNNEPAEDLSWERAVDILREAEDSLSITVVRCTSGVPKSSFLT
# T8: DVL3, Q92997
# T8 sequence (Q92997 244-331, limits assumed, looked up): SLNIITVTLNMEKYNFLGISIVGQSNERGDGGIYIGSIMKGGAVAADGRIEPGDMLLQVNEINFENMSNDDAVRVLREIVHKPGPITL
# T9: PTPN13_1, Q12923
# T9 sequence (Q12923 1088-1188, limits assumed, looked up): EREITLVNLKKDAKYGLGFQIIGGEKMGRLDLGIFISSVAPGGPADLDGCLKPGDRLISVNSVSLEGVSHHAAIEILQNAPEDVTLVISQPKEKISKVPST
# T10: APBA3_1, O96018
# T10 sequence (O96018 389-490, limits assumed, looked up): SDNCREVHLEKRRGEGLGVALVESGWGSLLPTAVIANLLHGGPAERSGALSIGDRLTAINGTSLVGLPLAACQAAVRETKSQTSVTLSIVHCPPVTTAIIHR
# T11: SNTA1, Q13424
# T11 sequence (Q13424 82-180, limits assumed, looked up): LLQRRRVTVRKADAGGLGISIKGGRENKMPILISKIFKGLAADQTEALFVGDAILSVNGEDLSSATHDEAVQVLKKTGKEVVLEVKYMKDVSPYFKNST
# T12: TX1BP3, O14907
# T12 sequence (O14907 10-122, limits assumed, looked up): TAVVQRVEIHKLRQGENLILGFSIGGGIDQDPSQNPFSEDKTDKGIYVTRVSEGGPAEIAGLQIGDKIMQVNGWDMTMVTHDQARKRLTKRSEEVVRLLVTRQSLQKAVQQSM
# B1: SEMA4C, Q9C0C4 (peptide)
# chain: PDSNPEESSV
# B2: CLDN9, O95484 (peptide)
# chain: ASGLDKRDYV
# B3: ADGRA2, Q96PE1 (peptide)
# chain: TGLWKSETTV
# B4: PLEKHG7, Q6ZR37 (peptide)
# chain: FTLPAESSEI
# B5: KCNT1, Q5JUK3 (peptide)
# chain: NPETRDETQL
# B6: GAB3, Q8WWW8 (peptide)
# chain: EWTDERQSKV
# Molecular target: DLG2_3, Q15700
# Assay: holdup assay
# Parameters: key: below the threshold = too weak to quantify, mostly under pKd 3.1 to 4
# Conditions: plain residues with an end cap or a label only (N-terminal biotin on a linker: ado-ado)
row,pKd,Binder
1,below the threshold,B1
2,below the threshold,B2
3,4.5,B3
4,3.75,B4
5,below the threshold,B5
6,below the threshold,B6

# Molecular target: PTPN3, P26045
# Sequence (P26045 505-587): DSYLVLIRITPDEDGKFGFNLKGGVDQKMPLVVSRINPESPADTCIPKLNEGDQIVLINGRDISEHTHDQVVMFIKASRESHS
# Assay: holdup assay
# Parameters: key: below the threshold = too weak to quantify, mostly under pKd 3.1 to 4
# Conditions: plain residues with an end cap or a label only (N-terminal biotin on a linker: ado-ado)
row,pKd,Binder
1,4.83,B1
2,below the threshold,B2
3,4.54,B3
4,3.55,B4
5,4.78,B5
6,4.12,B6

# Molecular target: GRIP2_3, Q9C0E4
# Sequence (Q9C0E4 238-339): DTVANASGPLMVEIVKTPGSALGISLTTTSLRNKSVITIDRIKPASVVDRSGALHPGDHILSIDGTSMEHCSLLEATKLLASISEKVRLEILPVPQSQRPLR
# Assay: holdup assay
# Parameters: key: below the threshold = too weak to quantify, mostly under pKd 3.1 to 4
# Conditions: plain residues with an end cap or a label only (N-terminal biotin on a linker: ado-ado)
row,pKd,Binder
1,below the threshold,B1
2,below the threshold,B2
3,below the threshold,B3
4,below the threshold,B4
5,below the threshold,B5
6,below the threshold,B6

# Molecular target: PDZRN4_1, Q6ZMN7
# Sequence (Q6ZMN7 213-318): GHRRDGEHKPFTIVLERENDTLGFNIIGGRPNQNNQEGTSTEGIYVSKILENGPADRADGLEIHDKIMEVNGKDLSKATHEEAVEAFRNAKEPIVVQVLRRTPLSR
# Assay: holdup assay
# Parameters: key: below the threshold = too weak to quantify, mostly under pKd 3.1 to 4
# Conditions: plain residues with an end cap or a label only (N-terminal biotin on a linker: ado-ado)
row,pKd,Binder
1,4.43,B1
2,below the threshold,B2
3,4.24,B3
4,below the threshold,B4
5,4.69,B5
6,3.86,B6

# Molecular target: T1, PDZD7_3, Q9H5P4
# Assay: holdup assay
# Parameters: key: below the threshold = too weak to quantify, mostly under pKd 3.1 to 4
# Conditions: plain residues with an end cap or a label only (N-terminal biotin on a linker: ado-ado)
row,pKd,Binder
1,3.9,B1
2,below the threshold,B2
3,4.65,B3
4,3.97,B4
5,4.66,B5
6,3.82,B6

# Molecular target: ARHGEF12, Q9NZN5-2
# Sequence (Q9NZN5 other isoform, or with tags, fused parts or gaps): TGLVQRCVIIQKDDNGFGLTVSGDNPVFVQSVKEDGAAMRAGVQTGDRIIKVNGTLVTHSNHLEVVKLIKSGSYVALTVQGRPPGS
# Assay: holdup assay
# Parameters: key: below the threshold = too weak to quantify, mostly under pKd 3.1 to 4
# Conditions: plain residues with an end cap or a label only (N-terminal biotin on a linker: ado-ado)
row,pKd,Binder
1,3.71,B1
2,below the threshold,B2
3,4.06,B3
4,4.18,B4
5,4.36,B5
6,3.68,B6

# Molecular target: T2, TJP3_3, O95049
# Assay: holdup assay
# Parameters: key: below the threshold = too weak to quantify, mostly under pKd 3.1 to 4
# Conditions: plain residues with an end cap or a label only (N-terminal biotin on a linker: ado-ado)
row,pKd,Binder
1,below the threshold,B1
2,3.65,B2
3,below the threshold,B3
4,below the threshold,B4
5,below the threshold,B5
6,below the threshold,B6

# Molecular target: T3, LIN7C, Q9NUP9
# Assay: holdup assay
# Parameters: key: below the threshold = too weak to quantify, mostly under pKd 3.1 to 4
# Conditions: plain residues with an end cap or a label only (N-terminal biotin on a linker: ado-ado)
row,pKd,Binder
1,3.56,B1
2,4,B2
3,4.29,B3
4,below the threshold,B4
5,3.68,B5
6,below the threshold,B6

# Molecular target: T4, RHPN1, Q8TCX5
# Assay: holdup assay
# Parameters: key: below the threshold = too weak to quantify, mostly under pKd 3.1 to 4
# Conditions: plain residues with an end cap or a label only (N-terminal biotin on a linker: ado-ado)
row,pKd,Binder
1,4.7,B1
2,below the threshold,B2
3,4.33,B3
4,4.68,B4
5,4.43,B5
6,4.2,B6

# Molecular target: T5, SNTG2, Q9NY99
# Assay: holdup assay
# Parameters: key: below the threshold = too weak to quantify, mostly under pKd 3.1 to 4
# Conditions: plain residues with an end cap or a label only (N-terminal biotin on a linker: ado-ado)
row,pKd,Binder
1,4.04,B1
2,below the threshold,B2
3,4.14,B3
4,below the threshold,B4
5,4.08,B5
6,3.88,B6

# Molecular target: FRMPD2_1, Q68DX3
# Sequence (Q68DX3 770-861): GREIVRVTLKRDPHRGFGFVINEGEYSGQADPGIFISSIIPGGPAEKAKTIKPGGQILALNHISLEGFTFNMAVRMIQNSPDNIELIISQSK
# Assay: holdup assay
# Parameters: key: below the threshold = too weak to quantify, mostly under pKd 3.1 to 4
# Conditions: plain residues with an end cap or a label only (N-terminal biotin on a linker: ado-ado)
row,pKd,Binder
1,below the threshold,B1
2,below the threshold,B2
3,below the threshold,B3
4,below the threshold,B4
5,below the threshold,B5
6,below the threshold,B6

# Molecular target: T6, HTRA3, P83110
# Assay: holdup assay
# Parameters: key: below the threshold = too weak to quantify, mostly under pKd 3.1 to 4
# Conditions: plain residues with an end cap or a label only (N-terminal biotin on a linker: ado-ado)
row,pKd,Binder
1,below the threshold,B1
2,3.79,B2
3,below the threshold,B3
4,below the threshold,B4
5,below the threshold,B5
6,below the threshold,B6

# Molecular target: MAST1, Q9Y2H9
# Sequence (Q9Y2H9 962-1065): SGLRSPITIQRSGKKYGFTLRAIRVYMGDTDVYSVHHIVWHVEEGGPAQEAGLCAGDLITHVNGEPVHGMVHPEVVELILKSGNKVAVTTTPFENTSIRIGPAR
# Assay: holdup assay
# Parameters: key: below the threshold = too weak to quantify, mostly under pKd 3.1 to 4
# Conditions: plain residues with an end cap or a label only (N-terminal biotin on a linker: ado-ado)
row,pKd,Binder
1,4.86,B1
2,below the threshold,B2
3,4.68,B3
4,4.53,B4
5,4.97,B5
6,below the threshold,B6

# Molecular target: FRMPD3, Q5JV73
# Sequence (Q5JV73 12-100): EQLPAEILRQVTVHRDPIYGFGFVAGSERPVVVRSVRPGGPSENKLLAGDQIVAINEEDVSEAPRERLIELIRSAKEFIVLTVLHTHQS
# Assay: holdup assay
# Parameters: key: below the threshold = too weak to quantify, mostly under pKd 3.1 to 4
# Conditions: plain residues with an end cap or a label only (N-terminal biotin on a linker: ado-ado)
row,pKd,Binder
1,below the threshold,B1
2,below the threshold,B2
3,below the threshold,B3
4,below the threshold,B4
5,below the threshold,B5
6,below the threshold,B6

# Molecular target: T7, FRMPD1, Q5SYB0
# Assay: holdup assay
# Parameters: key: below the threshold = too weak to quantify, mostly under pKd 3.1 to 4
# Conditions: plain residues with an end cap or a label only (N-terminal biotin on a linker: ado-ado)
row,pKd,Binder
1,below the threshold,B1
2,below the threshold,B2
3,below the threshold,B3
4,below the threshold,B4
5,below the threshold,B5
6,below the threshold,B6

# Molecular target: FRMPD2_2, Q68DX3
# Sequence (Q68DX3 944-1038): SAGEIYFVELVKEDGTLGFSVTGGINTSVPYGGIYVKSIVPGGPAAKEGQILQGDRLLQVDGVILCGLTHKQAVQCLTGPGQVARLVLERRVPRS
# Assay: holdup assay
# Parameters: key: below the threshold = too weak to quantify, mostly under pKd 3.1 to 4
# Conditions: plain residues with an end cap or a label only (N-terminal biotin on a linker: ado-ado)
row,pKd,Binder
1,4.27,B1
2,below the threshold,B2
3,3.51,B3
4,below the threshold,B4
5,below the threshold,B5
6,3.52,B6

# Molecular target: T8, DVL3, Q92997
# Assay: holdup assay
# Parameters: key: below the threshold = too weak to quantify, mostly under pKd 3.1 to 4
# Conditions: plain residues with an end cap or a label only (N-terminal biotin on a linker: ado-ado)
row,pKd,Binder
1,below the threshold,B1
2,below the threshold,B2
3,below the threshold,B3
4,below the threshold,B4
5,below the threshold,B5
6,below the threshold,B6

# Molecular target: T9, PTPN13_1, Q12923
# Assay: holdup assay
# Parameters: key: below the threshold = too weak to quantify, mostly under pKd 3.1 to 4
# Conditions: plain residues with an end cap or a label only (N-terminal biotin on a linker: ado-ado)
row,pKd,Binder
1,below the threshold,B1
2,below the threshold,B2
3,below the threshold,B3
4,below the threshold,B4
5,3.54,B5
6,below the threshold,B6

# Molecular target: T10, APBA3_1, O96018
# Assay: holdup assay
# Parameters: key: below the threshold = too weak to quantify, mostly under pKd 3.1 to 4
# Conditions: plain residues with an end cap or a label only (N-terminal biotin on a linker: ado-ado)
row,pKd,Binder
1,below the threshold,B1
2,below the threshold,B2
3,below the threshold,B3
4,below the threshold,B4
5,below the threshold,B5
6,below the threshold,B6

# Molecular target: Inadl_4, Q8NI35
# Sequence (Q8NI35 547-651): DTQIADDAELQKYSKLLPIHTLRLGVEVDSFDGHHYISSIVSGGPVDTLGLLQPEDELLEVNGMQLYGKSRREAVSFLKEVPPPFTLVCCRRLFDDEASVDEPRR
# Assay: holdup assay
# Parameters: key: below the threshold = too weak to quantify, mostly under pKd 3.1 to 4
# Conditions: plain residues with an end cap or a label only (N-terminal biotin on a linker: ado-ado)
row,pKd,Binder
1,3.48,B1
2,below the threshold,B2
3,below the threshold,B3
4,below the threshold,B4
5,below the threshold,B5
6,below the threshold,B6

# Molecular target: T11, SNTA1, Q13424
# Assay: holdup assay
# Parameters: key: below the threshold = too weak to quantify, mostly under pKd 3.1 to 4
# Conditions: plain residues with an end cap or a label only (N-terminal biotin on a linker: ado-ado)
row,pKd,Binder
1,4.25,B1
2,below the threshold,B2
3,4.41,B3
4,below the threshold,B4
5,4.04,B5
6,4.43,B6

# Molecular target: T12, TX1BP3, O14907
# Assay: holdup assay
# Parameters: key: below the threshold = too weak to quantify, mostly under pKd 3.1 to 4
# Conditions: plain residues with an end cap or a label only (N-terminal biotin on a linker: ado-ado)
row,pKd,Binder
1,4.25,B1
2,3.92,B2
3,4.87,B3
4,below the threshold,B4
5,3.62,B5
6,3.72,B6

# Molecular target: Inadl_5, Q8NI35
# Sequence (Q8NI35 673-780): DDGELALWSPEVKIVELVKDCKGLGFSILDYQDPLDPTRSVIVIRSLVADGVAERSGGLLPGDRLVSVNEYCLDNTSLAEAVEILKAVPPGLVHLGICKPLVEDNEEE
# Assay: holdup assay
# Parameters: key: below the threshold = too weak to quantify, mostly under pKd 3.1 to 4
# Conditions: plain residues with an end cap or a label only (N-terminal biotin on a linker: ado-ado)
row,pKd,Binder
1,below the threshold,B1
2,below the threshold,B2
3,below the threshold,B3
4,below the threshold,B4
5,below the threshold,B5
6,below the threshold,B6

# Molecular target: GORASP1, Q9BQQ3
# Sequence (Q9BQQ3 1-208): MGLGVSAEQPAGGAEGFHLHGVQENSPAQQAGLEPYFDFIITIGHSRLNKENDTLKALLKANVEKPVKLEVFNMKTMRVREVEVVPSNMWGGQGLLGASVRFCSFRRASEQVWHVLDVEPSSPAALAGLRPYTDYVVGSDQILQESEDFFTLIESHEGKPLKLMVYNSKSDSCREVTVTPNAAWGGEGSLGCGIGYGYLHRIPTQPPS
# Assay: holdup assay
# Parameters: key: below the threshold = too weak to quantify, mostly under pKd 3.1 to 4
# Conditions: plain residues with an end cap or a label only (N-terminal biotin on a linker: ado-ado)
row,pKd,Binder
1,below the threshold,B1
2,below the threshold,B2
3,3.5,B3
4,below the threshold,B4
5,below the threshold,B5
6,below the threshold,B6

# Molecular target: MAGI2_4, Q86UL8
# Sequence (Q86UL8 772-865): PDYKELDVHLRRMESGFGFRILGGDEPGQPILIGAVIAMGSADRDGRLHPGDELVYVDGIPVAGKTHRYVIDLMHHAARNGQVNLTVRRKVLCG
# Assay: holdup assay
# Parameters: key: below the threshold = too weak to quantify, mostly under pKd 3.1 to 4
# Conditions: plain residues with an end cap or a label only (N-terminal biotin on a linker: ado-ado)
row,pKd,Binder
1,below the threshold,B1
2,below the threshold,B2
3,4.88,B3
4,below the threshold,B4
5,below the threshold,B5
6,below the threshold,B6
